Source: paper PMC4646180

The substances below were run against Ub-AMC (ubiquitin with 7-amino-4-methylcoumarin at its C terminus) (UniProt P0CG48).

| Substance | Relative activity of WT, 500 nM Ub-AMC |
| --- | --- |
| MHV PLP2+ D1772R (from UniProt P0C6V0 1525-1911) (enzyme) | 1.1% |
| MHV PLP2+ D1807R (from UniProt P0C6V0 1525-1911) (enzyme) | 0.5% |
| MHV PLP2+ F1812A (from UniProt P0C6V0 1525-1911) (enzyme) | 3.3% |
| MHV PLP2+ Y1824A (from UniProt P0C6V0 1525-1911) (enzyme) | 3% |
| MHV PLP2+ Y1824F (from UniProt P0C6V0 1525-1911) (enzyme) | 70.3% |
